B1: humanized anti-ICAM-1 antibody H17L3 (VH17 + VL3), human IgG4/kappa (antibody, V domains shown)
VH: QVQLVQSGAEVKKPGASVKISCKGSGYTFTDYALHWVRQAPGQRLEWMGVISTYSGNTDYNQKFRGRATITVDTSASTAYMELSSLRSEDTAVYYCARSLYFGSSGFDYWGQGTALTVSS
VL: DVVLTQTPLSSPVTLGQPASISCRSSQTLVYRNGNTYLHWYLQRAGQPPRLLIYKVSNRFSGVPDRFSGSGAGTDFTLKISRVEAEDVGVYFCSQNTHFPYTFGGGTKLEIKT
notes: The Arg at the VL/CL junction is in neither entry
B2: humanized anti-ICAM-1 antibody H17L1 (VH17 + VL1), human IgG4/kappa (antibody, V domains shown)
VH: QVQLVQSGAEVKKPGASVKISCKGSGYTFTDYALHWVRQAPGQRLEWMGVISTYSGNTDYNQKFRGRATITVDTSASTAYMELSSLRSEDTAVYYCARSLYFGSSGFDYWGQGTALTVSS
VL: DVVLTQSPLSLPVTLGQPASISCRSSQTLVYRNGNTYLHWYQQRPGQSPRLLIYKVSNRFSGVPDRFSGSGSGTDFTLKISRVEAEDVGVYFCSQNTHFPYTFGGGTKLEIKT
B3: humanized anti-ICAM-1 antibody H4L3 (VH4 + VL3), human IgG4/kappa (antibody, V domains shown)
VH: QVQLVQSGAEVKKPGASVKVSCKASGYTFTDYALHWVRQAPGQRLEWIGVISTYSGNTDYNQKFRGRVTMTRDTSATTAYLELSSLRSEDTAVYYCARSLYFGSSGFDYWGQGTALTVSS
VL: DVVLTQTPLSSPVTLGQPASISCRSSQTLVYRNGNTYLHWYLQRAGQPPRLLIYKVSNRFSGVPDRFSGSGAGTDFTLKISRVEAEDVGVYFCSQNTHFPYTFGGGTKLEIKT
notes: as for B1
B4: humanized anti-ICAM-1 antibody H17L4 (VH17 + VL4), human IgG4/kappa (antibody, V domains shown)
VH: QVQLVQSGAEVKKPGASVKISCKGSGYTFTDYALHWVRQAPGQRLEWMGVISTYSGNTDYNQKFRGRATITVDTSASTAYMELSSLRSEDTAVYYCARSLYFGSSGFDYWGQGTALTVSS
VL: DVVLTQTPLSSPVTLGQPASISCRSSQTLVYRNGNTYLHWYQQRPGQPPRLLIYKVSNRFSGVPDRFSGSGAGTDFTLKISRVEAEDVGVYFCSQNTHFPYTFGGGTKLEIKT
notes: The Arg at the VL/CL junction is in neither entry; also called DNP007; DNP007 antibody (H17L4 antibody)
B5: humanized anti-ICAM-1 antibody H5L3 (VH5 + VL3), human IgG4/kappa (antibody, V domains shown)
VH: QVQLVQSGAEVKKPGASVKISCKASGYTFTDYALHWVRQAPGQRLEWMGVISTYSGNTDYNQKFRGRVTITVDKSATTAYMELSSLRSEDTAVYYCARSLYFGSSGFDYWGQGTALTVSS
VL: DVVLTQTPLSSPVTLGQPASISCRSSQTLVYRNGNTYLHWYLQRAGQPPRLLIYKVSNRFSGVPDRFSGSGAGTDFTLKISRVEAEDVGVYFCSQNTHFPYTFGGGTKLEIKT
notes: as for B1
B6: chimeric anti-ICAM-1 antibody SI9 (mouse SI9 variable regions, human IgG4/kappa constant regions) (antibody)
heavy: QVQLQQSGAELVRPGVSVKISCKGSGYTFTDYALHWVKQSHAKSLEWIGVISTYSGNTDYNQKFRGKATMTVDKSSTTAYLELARLTSEDSAIHYCARSLYFGSSGFDYWGQGTALTVSS
light: DVVLTQTPLSLPVNLGDQASISCRSSQTLVYRNGNTYLHWYLQKAGQSPKLLIYKVSNRFSGVPDRFSGSGSGTDFTLKISRVEAEDLGVYFCSQNTHFPYTFGGGTKIKR
notes: the hinge lies in the heavy chain; also called chimeric antibody SI9; SI9 Chimeric; not shown: human IgG4 heavy chain constant region, GenBank AIC59040.1 (printed), hinge 'CPSCP' modified to 'CPPCP' (position not pr); human kappa light chain constant region, GenBank AAA58989.1 (printed)

Assays:
[1] = biological target: ICAM-1 expressed on the surface of the prostate cancer cell line Du145 (human) (UniProt P05362); experiment: flow cytometry on Du145 cells expressing ICAM-1
[2] = biological target: T1, ICAM-1 protein antigen (R&D System) (human, UniProt P05362 28-480); experiment: ELISA, ICAM-1 coated 100 ng/well, anti-human Ig-HRP
T1 construct: The assay paragraphs say only 'ICAM-1 (R&D System)'; also called antigen ICAM-1; ICAM-1 antigen
Experimental: The antigen ICAM-1 (ICAM-1; R&D System) was coated on a 96 well plate at 100 ng per well, followed by blocking. The amount of the primary antibody was serially diluted twice from 80 ng/ml and bound for 1 hour at 37° C. and a secondary antibody diluted 1:10000 with goat anti-Human Ig-HRP conjugate (Jackson ImmunoResearch) was combined at 37° C. for 30 minutes. Each step was washed three times and reacted with TMB (3,3′,5,5′-Tetramethylbenzidine). After the reaction was stopped by treatment with 1N H₂SO₄ solution in the same amount (100 ul) as the TMB solution, the OD value was measured at 450 nm.

[3] = biological target: T1, ICAM-1 protein antigen (R&D System); experiment: BLI (Octet), antibody coupled to AR2G amine-reactive sensor, ICAM-1 in solution at 5 concentrations
Experimental: The Octet system (ForteBio) was used to compare the affinity of the H17L1 and H17L4 humanized antibodies to the antigen with the parent antibody. Each of three antibodies was attached to the amine reactive Bio-sensor AR2G (ForteBio), and 5 different concentrations of ICAM-1 antigen solution were added to induce antigen/antibody reactions to occur. Using the antigen/antibody reaction results, the binding constant (Kon) and the dissociation constant (Koff) were measured, and the affinity (KD) was calculated, and the results are shown in Table 10 and FIG. 8: […]

Chain of ICAM-1 expressed on the surface of the prostate cancer cell line Du145 (human) (P05362 28-532): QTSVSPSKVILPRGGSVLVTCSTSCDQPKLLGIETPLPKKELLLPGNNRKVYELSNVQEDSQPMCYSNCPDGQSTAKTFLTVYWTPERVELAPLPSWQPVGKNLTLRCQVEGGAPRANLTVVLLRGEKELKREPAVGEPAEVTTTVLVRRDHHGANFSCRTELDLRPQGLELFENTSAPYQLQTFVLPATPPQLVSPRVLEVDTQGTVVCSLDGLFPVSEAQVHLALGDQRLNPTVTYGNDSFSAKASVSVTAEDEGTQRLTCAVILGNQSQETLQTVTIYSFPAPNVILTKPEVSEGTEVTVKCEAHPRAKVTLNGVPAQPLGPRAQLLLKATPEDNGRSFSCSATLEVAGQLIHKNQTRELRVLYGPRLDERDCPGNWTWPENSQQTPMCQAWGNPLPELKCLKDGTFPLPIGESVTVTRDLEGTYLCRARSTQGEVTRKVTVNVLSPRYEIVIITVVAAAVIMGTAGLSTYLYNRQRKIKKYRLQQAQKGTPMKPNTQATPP
T1 sequence (P05362 28-480 limits assumed): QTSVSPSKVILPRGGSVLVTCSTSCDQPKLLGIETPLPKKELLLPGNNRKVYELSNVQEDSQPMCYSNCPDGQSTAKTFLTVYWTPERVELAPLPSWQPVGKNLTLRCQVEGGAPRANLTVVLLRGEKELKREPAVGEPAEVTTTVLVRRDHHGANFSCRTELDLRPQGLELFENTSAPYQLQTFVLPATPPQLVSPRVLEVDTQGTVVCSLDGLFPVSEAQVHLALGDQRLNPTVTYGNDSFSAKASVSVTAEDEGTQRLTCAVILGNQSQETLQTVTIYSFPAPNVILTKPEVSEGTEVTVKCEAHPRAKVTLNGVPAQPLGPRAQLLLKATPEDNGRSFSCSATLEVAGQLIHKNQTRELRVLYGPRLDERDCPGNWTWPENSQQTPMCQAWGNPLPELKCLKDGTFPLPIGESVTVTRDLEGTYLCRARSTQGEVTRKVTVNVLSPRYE

Row | Molecule | % Gated (marker M1) [1] [%] | Mean (marker All) [1] | Mean (marker M1) [1] | OD 450 nm at 2.5 ng/ml antibody [2] | OD 450 nm at 5 ng/ml antibody [2] | OD 450 nm at 10 ng/ml antibody [2] | OD 450 nm at 20 ng/ml antibody [2] | OD 450 nm at 40 ng/ml antibody [2] | OD 450 nm at 80 ng/ml antibody [2] | Kd [3] [nM] | koff [3] [s⁻¹] | kon [3] [M⁻¹ s⁻¹]
1 | Negative control | 0.58 | 3.9 | 91 |  |  |  |  |  |  |  |  | 
2 | B1 |  |  |  | 0.135 OD (450 nm) | 0.201 OD (450 nm) | 0.344 OD (450 nm) | 0.567 OD (450 nm) | 0.848 OD (450 nm) | 1.2 OD (450 nm) |  |  | 
3 | B2 |  |  |  | 0.119 OD (450 nm) | 0.186 OD (450 nm) | 0.297 OD (450 nm) | 0.506 OD (450 nm) | 0.802 OD (450 nm) | 1.11 OD (450 nm) | 3.43 | 0.000853 | 249000
4 | B3 |  |  |  | 0.115 OD (450 nm) | 0.189 OD (450 nm) | 0.305 OD (450 nm) | 0.52 OD (450 nm) | 0.832 OD (450 nm) | 1.23 OD (450 nm) |  |  | 
5 | B4 |  |  |  | 0.136 OD (450 nm) | 0.236 OD (450 nm) | 0.349 OD (450 nm) | 0.637 OD (450 nm) | 0.983 OD (450 nm) | 1.24 OD (450 nm) | 3.62 | 0.000929 | 256000
6 | B5 |  |  |  | 0.128 OD (450 nm) | 0.208 OD (450 nm) | 0.35 OD (450 nm) | 0.592 OD (450 nm) | 0.862 OD (450 nm) | 1.25 OD (450 nm) |  |  | 
7 | B6 |  |  |  | 0.118 OD (450 nm) | 0.182 OD (450 nm) | 0.298 OD (450 nm) | 0.473 OD (450 nm) | 0.724 OD (450 nm) | 1.14 OD (450 nm) | 10.3 | 0.00169 | 165000
